Patent publication US20100168031

T1: L(+)-biotinyl-aminohexanoyl-Glu-Glu-Gly-Ala-Pro-Asp-Tyr-Glu-Asn-Leu-Gln-Glu-Leu-Asn (SEQ ID NO:12)
T1 chain: EEGAPDYENLQELN

T2: L(+)-biotinyl-aminohexanoyl-Glu-Ser-Ile-Asp-Asp-Tyr-Val-Asn-Val-Pro-Glu-Gly-OH (SEQ ID NO:13) (not fully specified)
T2 chain: ESIDDYVNVPEG

T3: L(+)-biotinyl-aminohexanoyl-Glu-Asp-Glu-Asp-Asp-Tyr-His-Asn-Pro-Gly-Gly-OH (SEQ ID NO:14) (not fully specified)
T3 chain: EDEDDYHNPGG

T4: L(+)-biotinyl-aminohexanoyl-Cys(H)-Asp-Asp-Tyr-Glu-Phe-Leu-NH2 (SEQ ID NO:25)
T4 chain: CDDYEFL

B1: recombinant full-length human Bruton's tyrosine kinase (Btk) (protein)
chain: MAAVILESIFLKRSQQKKKTSPLNFKKRLFLLTVHKLSYYEYDFERGRRGSKKGSIDVEKITCVETVVPEKNPPPERQIPRRGEESSEMEQISIIERFPYPFQVVYDEGPLYVFSPTEELRKRWIHQLKNVIRYNSDLVQKYHPCFWIDGQYLCCSQTAKNAMGCQILENRNGSLKPGSSHRKTKKPLPPTPEEDQILKKPLPPEPAAAPVSTSELKKVVALYDYMPMNANDLQLRKGDEYFILEESNLPWWRARDKNGQEGYIPSNYVTEAEDSIEMYEWYSKHMTRSQAEQLLKQEGKEGGFIVRDSSKAGKYTVSVFAKSTGDPQGVIRHYVVCSTPQSQYYLAEKHLFSTIPELINYHQHNSAGLISRLKYPVSQQNKNAPSTAGLGYGSWEIDPKDLTFLKELGTGQFGVVKYGKWRGQYDVAIKMIKEGSMSEDEFIEEAKVMMNLSHEKLVQLYGVCTKQRPIFIITEYMANGCLLNYLREMRHRFQTQQLLEMCKDVCEAMEYLESKQFLHRDLAARNCLVNDQGVVKVSDFGLSRYVLDDEYTSSVGSKFPVRWSPPEVLMYSKFSSKSDIWAFGVLMWEIYSLGKMPYERFTNSETAEHIAQGLRLYRPHLASEKVYTIMYSCWHEKADERPTFKILLSNILDVMDEES
B2: recombinant full-length human ZAP-70 (Zeta chain-associated protein of 70 kD) with N-terminal hexa-histidine tag (protein)
chain: MPDPAAHLPFFYGSISRAEAEEHLKLAGMADGLFLLRQCLRSLGGYVLSLVHDVRFHHFPIERQLNGTYAIAGGKAHCGPAELCEFYSRDPDGLPCNLRKPCNRPSGLEPQPGVFDCLRDAMVRDYVRQTWKLEGEALEQAIISQAPQVEKLIATTAHERMPWYHSSLTREEAERKLYSGAQTDGKFLLRPRKEQGTYALSLIYGKTVYHYLISQDKAGKYCIPEGTKFDTLWQLVEYLKLKADGLIYCLKEACPNSSASNASGAAAPTLPAHPSTLTHPQRRIDTLNSDGYTPEPARITSPDKPRPMPMDTSVYESPYSDPEELKDKKLFLKRDNLLIADIELGCGNFGSVRQGVYRMRKKQIDVAIKVLKQGTEKADTEEMMREAQIMHQLDNPYIVRLIGVCQAEALMLVMEMAGGGPLHKFLVGKREEIPVSNVAELLHQVSMGMKYLEEKNFVHRDLAARNVLLVNRHYAKISDFGLSKALGADDSYYTARSAGKWPLKWYAPECINFRKFSSRSDVWSYGVTMWEALSYGQKPYKKMKGPEVMAFIEQGKRMECPPECPPELYALMSDCWIYKWEDRPDFLTVEQRMRACYYSLASKVEGPPGSTQKAEAACA
B3: ZAP-70 activated by Lck (protein)
chain: B2 chain

Legend:
[1] = molecular target: T1, L(+)-biotinyl-aminohexanoyl-Glu-Glu-Gly- …
[2] = molecular target: T2, L(+)-biotinyl-aminohexanoyl-Glu-Ser-Ile- …
[3] = molecular target: T3, L(+)-biotinyl-aminohexanoyl-Glu-Asp-Glu- …
[4] = molecular target: T4, L(+)-biotinyl-aminohexanoyl-Cys(H)-Asp-A …
[5] = molecular target: compounds represented by SEQ ID NO:12, SEQ ID NO:13, SEQ ID NO:14 or SEQ ID NO:25
[6] = molecular target: compounds of SEQ ID NO:12; SEQ ID NO: 13; or SEQ ID NO: 14

Row | Protein | phosphorylation of the peptide by the kinase, time resolved fluorescence resonance energy transfer [1] | phosphorylation of the peptide by the kinase, time resolved fluorescence resonance energy transfer [2] | phosphorylation of the peptide by the kinase, time resolved fluorescence resonance energy transfer [3] | phosphorylation of the peptide by the kinase, time resolved fluorescence resonance energy transfer (Eu-anti-phosphotyrosine / SA-APC, 665 nm) [4] | phosphorylation of the peptide by the kinase, time resolved fluorescence resonance energy transfer (Eu-anti-phosphotyrosine / SA-APC, 665 nm) [1] | phosphorylation of the peptide by the kinase, time resolved fluorescence resonance energy transfer (Eu-anti-phosphotyrosine / SA-APC, 665 nm) [2] | fluorescence units (TR-FRET phosphorylation assay, 250 nM peptide, 10 nM ZAP-70, 1 µM ATP) [5] | phosphorylation of the peptide by the kinase, time resolved fluorescence resonance energy transfer (Eu-anti-phosphotyrosine / SA-APC, 665 nm) [3] | phosphorylation of the peptide with 33P-ATP, biotin capture plate, scintillation counting [1] | phosphorylation of the peptide with 33P-ATP, biotin capture plate, scintillation counting [2] | fluorescence units (TR-FRET phosphorylation assay, 250 nM peptide, 10 nM ZAP-70 plus 42 nM Lck, 1 µM ATP) [5] | Km (33P-ATP phosphorylation assay, peptide 0.08-20 µM) [6] | Maximal cpm (33P-ATP phosphorylation assay) [6] | phosphorylation of the peptide with 33P-ATP, biotin capture plate, scintillation counting [3]
1 | B1 | are hardly phosphorylated by Lck, Btk or IRK | are hardly phosphorylated by Lck, Btk or IRK | are hardly phosphorylated by Lck, Btk or IRK |  |  |  |  |  |  |  |  |  |  | 
2 | B2 |  |  |  | are phosphorylated by ZAP-70 and by ZAP-70 activated by Lck | are phosphorylated by ZAP-70 and by ZAP-70 activated by Lck | are phosphorylated by ZAP-70 and by ZAP-70 activated by Lck | 20,000 to 46,000 fluorescence units | are phosphorylated by ZAP-70 and by ZAP-70 activated by Lck |  |  |  |  |  | 
3 | B3 |  |  |  | are phosphorylated by ZAP-70 and by ZAP-70 activated by Lck | are phosphorylated by ZAP-70 and by ZAP-70 activated by Lck | are phosphorylated by ZAP-70 and by ZAP-70 activated by Lck |  | are phosphorylated by ZAP-70 and by ZAP-70 activated by Lck | are phosphorylated by ZAP-70 | are phosphorylated by ZAP-70 | 20,000 to 46,000 fluorescence units | Km values are in the range of from 0.4 to 2.0 µM | Maximal cpm range from 12,000 to 16,000 | are phosphorylated by ZAP-70
